# Measurements as given in publication PMC7530003 (Developmental cell, 2020).
# B1: ZO-1 ABR construct for co-sedimentation (EGFP-ZO-1(1159–1382)-Dual Strep) (domain or fragment, human, UniProt Q07157 1159-1382, looked up)
# chain: EQPAPGYDTHGRLRPEAQPHPSAGPKPAESKQYFEQYSRSYEQVPPQGFTSRAGHFEPLHGAAAVPPLIPSSQHKPEALPSNTKPLPPPPTQTEEEEDPAMKPQSVLTRVKMFENKRSASLETKKDVNDTGSFKPPEVASKPSGAPIIGPKPTSQNQFSEHDKTLYRIPEPQKPQLKPPEDIVRSNHYDPEEDEEYYRKQLSYFDRRSFENKPPAHIAASHLSE
# Target: F-actin prepared by polymerizing β-actin (UniProt P60709 1-375)
# Test: co-sedimentation
binder,measurement,value
B1,Kd,~10 µM
